The values below come from IntAct's records for PubMed 29072299.

The chains are these.
B1: Mothers against decapentaplegic homolog 4 (Mus musculus), P97471 (parent)
chain: MDNMSITNTPTSNDACLSIVHSLMCHRQGGESETFAKRAIESLVKKLKEKKDELDSLITAITTNGAHPSKCVTIQRTLDGRLQVAGRKGFPHVIYARLWRWPDLHKNELKHVKYCQYAFDLKCDSVCVNPYHYERVVSPGIDLSGLTLQSNAPSMLVKDEYVHDFEGQPSLPTEGHSIQTIQHPPSNRASTETYSAPALLAPAESNATSTTNFPNIPVASTSQPASILAGSHSEGLLQIASGPQPGQQQNGFTAQPATYHHNSTTTWTGSRTAPYTPNLPHHQNGHLQHHPPMPPHPGHYWPVHNELAFQPPISNHPAPEYWCSIAYFEMDVQVGETFKVPSSCPVVTVDGYVDPSGGDRFCLGQLSNVHRTEAIERARLHIGKGVQLECKGEGDVWVRCLSDHAVFVQSYYLDREAGRAPGDAVHKIYPSAYIKVFDLRQCHRQMQQQAATAQAAAAAQAAAVAGNIPGPGSVGGIAPAISLSAAAGIGVDDLRRLCILRMSFVKGWGPDYPRQSIKETPCWIEIHLHRALQLLDEVLHTMPIADPQPLD
partner: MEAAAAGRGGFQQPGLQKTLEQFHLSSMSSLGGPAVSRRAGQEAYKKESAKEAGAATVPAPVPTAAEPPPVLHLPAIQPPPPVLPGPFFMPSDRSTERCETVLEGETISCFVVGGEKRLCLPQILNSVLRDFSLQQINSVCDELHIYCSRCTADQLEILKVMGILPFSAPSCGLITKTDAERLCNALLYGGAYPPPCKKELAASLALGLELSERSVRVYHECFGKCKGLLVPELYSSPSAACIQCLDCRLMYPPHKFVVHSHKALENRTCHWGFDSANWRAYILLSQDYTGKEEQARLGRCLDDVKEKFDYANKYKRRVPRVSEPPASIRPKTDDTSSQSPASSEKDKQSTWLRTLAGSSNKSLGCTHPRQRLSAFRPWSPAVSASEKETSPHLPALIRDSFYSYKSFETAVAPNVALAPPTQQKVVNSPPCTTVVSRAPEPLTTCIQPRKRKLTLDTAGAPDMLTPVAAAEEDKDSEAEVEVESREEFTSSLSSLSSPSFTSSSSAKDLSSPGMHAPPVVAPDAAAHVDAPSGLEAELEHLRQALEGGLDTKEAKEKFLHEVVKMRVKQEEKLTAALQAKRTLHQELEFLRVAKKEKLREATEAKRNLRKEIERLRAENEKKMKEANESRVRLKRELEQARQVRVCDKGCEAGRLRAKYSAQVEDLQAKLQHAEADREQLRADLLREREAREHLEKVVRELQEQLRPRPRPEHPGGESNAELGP

This test covers variants of B1. To be noted: with ski_mouse Ski.
Turning to A432E, the “effect of a mutation on the interaction” value is given as “disrupting interaction strength”.
The same measure for Y429A: “disrupting interaction strength”.
